Literature values as cited in article PMC13681993.

Molecular target: GAB1 pY627 (Homo sapiens) (UniProt Q13480)
Test: fluorescence polarization

Kd: 287 nM
Substance: PTPN11 N-SH2 (from UniProt Q06124)
